Reference: the NTF2 design screens of Basanta et al. (2020)

Assay: protease stability score; higher = more stable; yeast display proteolysis, trypsin and chymotrypsin;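 note: log10 excess protease needed over predicted unfolded state with 0 meaning unfolded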

Sequence	protease stability score
DERQIEQLKRYLEALKTGDKEKIKELLDPNARIVYGDKEVKGRENIAEQVKKRKDDSRYDWTSVDVKTSGDKLVMTARKVNNRNGRPHERQFTADIKIKNGRMQHLQFDSTG	-0.323
DERQLDLLRQFLHAVQHGDEDRLKELADPNAKFTVGDKTIHGMNTFARTVKRRRDQARFQYNVKSMEADGDKMEVRIQLHVDVNGRPINVEFTARAHVDGDKLKSLELRIPEEVLKKQES	0.037
DERQLKILVRILNAIHEGDPDTVKQLVDPNARVVIGDKVLHGMDEVRDTLHKWQEEQEVDLKDYRDNVHNGKADITAKAKVNQDGTPDHIRFKATAEFRNGRAKEVRINHDK	1.09
DERQNERFETLVKAIEEGDEDEAREQMDPNVRIEVGDKVIHGMDEFADTVRRTREELRVEFKIKRLRIKNGQVDVEMHVTFDHNGEPETARMVIKVNAHNGKIKNVVMRIHK	1.6
DERQNKEAFQRVAENITTNNPDEIMKQADPNVRFKYGDKEVHGRENVRDIVKEFNERVDRVQIDHVNVQGDKVNANATADVNGRKHRFQIHAVIKNGRLKFMQIHDQ	1.09
DERQNSQLHRQIEQAKQGDEEKVRQQMDENARARYGDKEVHGRTELARQQVRQWNEAKIDIEFKRVSAHENEIRVNVVMQFDVDGRPNRSTWTFKVRFHNGTIKQINAEIDPDEWDTLLK	0.506
DERQRSRAEEFMKNYQTGNEQNLDKLFDKNAKVHVGDKVVHGREQIREQNRREKEHLRFKIRHMDVEVRNGHVSVQVRMEREHNGHPQTVSVQFRNEQHNGQIKRFEREEQQ	0.258
DERQVERIDRHLKALEHGDEKTLVEMIDPNAHFSVGDKEIHGREEYAHQQRRRVKESRFQVTIKDVQVNGDTVHIKYTSDQKHNGQPREDSNVMVMDATGERIESAKVTKDQ	-0.418
DERQVKEIALEAAKAYISGNKEKLKKLGKEDVELEAGSHKYKGVEQMATVVEQFKKYGVELQITDVKVDGDKVKMRIQVHAGGTTWEFTMEIQVDGGRVDKMTIHLSEEMVKRIQKG	1.02
DERRLEEVARHIRRGDKKHLNRLADPNAQLQYGNQRYTGRERVQTFWRQMITRADHLRVQSVTIHNGRIDAKFEMRVNGNKVEYRLKVQIHNGKAQNVQVNYRDEEDEKRMEENLG	0.183
DERRLEQQQREYLKVLNTGNPDEMNELFDENASWQVGDKRYTGREEIERKLRELHNRVDQVRLDSYEVEPGRIKIDFQLDVNGVKVRITIILHYHNGRLQEVKMDVTDPEQWKHMQK	-0.011
DERRQAQQFADTFDDNMQENNEEEVVKMADPNAELTVGDKEYHGREEIQKWIKQIHDKVDHLEIHIKSVDVRNGRVTIRARVRVEHNGRQKTMSVDIKAEQKNGRFIIKTMTMG	1.47
DERRQQEVLKRFIDALQTGDPQKLKELADPNAQVNVGDKTFHGRDELVRQVEDEKRRIDEFHVVSIENHGDHVTARFRKESDGHQTEFVMKAYVHNGKVQSVKIDSS	0.201
DERTLEQLLQDFINNMQTGDHQSLKDLLDENARVNIGDKTLSGRERVTTALKRLMRRVDHIQVDHYEVTNGEMNIDMQLEVNGVRVKVEVIIEVHNGKAKFIEFRVRNEEQWERVEG	1.84
DERTNTEMLKRLQHALQKNDPNEVRKLFDKDVQVQIGDKTLSGREQLLTEAEQRRKKIDDIEVTDMKSNPDHAVLSVVIKHNGRNRKVIYYIRWSNGKVRKVEERES	1.5
DERVADQFVRALRTNDEEQLVRLMDEDAKMRVGEKEIHGRESVQTYLRRFAQQADHVDIHHVHIQGDKVSIDAVVEFNGKRVRFSMQFTVEGEKVKDVTIEARDEDDKRKLDEIFR	1.79
DERVAHEFVKAINKGDPDRLNELADKNARAEVGDKTFHGREKLEQMWKQWKKMVDHIHIRRVRVHNGHIHVDYVVNIDGQNNQLEIKAVVENGKVQEVKIQVTDEQNQDKLRKKMD	1.25
DERVHEAFRRFVHALKEGDPDKIRENADEDVRIEVGDTEIQGRETLADRVEEEMKDMQIEYQIDSIKVHGNKAKVNMRVVKNHNGKPETRKFTVHVTFDNGKVKNVHVQDDR	1.3
DERVIQEIRKMFNTNNFDSIAKNADKDATASIGNKHVHGKDNVKKLLDQFSRQIDHIQIDSVHVQGEKFVAQMKVNINGRERTAEMRMEVHNGKIQRISITFTDPSAQQTIKERME	0.942
DERVKQQVETLERAVKHNDEDRLKELMDPNVRVRVGDRTVEGREEIAKQLVRTNNESRIEQKIDRVDVRGDKVHIDFQRREHHDGKPDSAKFNVLVKASNGRISEMEVHTNQ	-0.248
DERVKRLVEQWFRAIEHGDPDQERKYFDPNARVEIGDRELNGREEIAHDLKRRHDEMHLHLKSVTIRVEGDHAEVNVRFQQDHNGKPEQKVQHVVLHFRGDYVRKMEVRDTK	1.15
DERVKSQATEFVTALKRNDEKRLMELADKDVSVRYGDKVVHGRERVRETARHITEESRVEYDTVRVDVQGNQANVEMEATFDHNGKPDRAKVNIQINFHNGKIKRVRIDKKP	0.971
DERVNREWEKFIHAFESGNESQLKRLMDKDVRLTVGDKQIEGREEMARQLKKRRDQSRVSINIESVQHDGDKVHIQFHVTNNKNGRPEKRTSVVTVEAHNGKLKEVNIDDKP	0.803
DERWKEKFEQMVRDQKTGNEDEVAKYFDKNAEIKVGDQRFHGREQLREHLREQRRQMRVDIDIKHVDVKGNHITVEYEFRENHNGRPTRRKATLRAEYHNGKIQRMRIDKSG	1.33
DESAAERFDEFMRNVDTNNEHKLKEYADPNAKVQYGDKVLHGMDQIIHDIRRYMEEMRVRVDFKRYDAQGNELSFVADYSAEYNGEPVNDNVTFHVEAHNGKLKDMKINFDPKKDQDRRG	0.355

Sequence	protease stability score
DESAHKLVHDMMDAIRQNNPERVEQLADPNVKIEYGDEVIQGRENVSTTMKEILEKQRVEYNFKRVDDHNGQVRADVEVEVEHNGEPHRDKLIVHAERHNGRIRYVELQHDG	-0.174
DESAIHDVTNLLHNIQTGNPDEVDKHMDKHVKLNVGDKQISGRHRVRKKVEREKKEIRIHITVYHMRSRPGRVKIDATRENEHNGTPHSHRVIVDVRYDNGKIVNFRVEDVK	0.366
DESAIQHWRKMLEAVETGDEKKIQKQADPNAKFRVGDKVIHGREKYAKQKVQEARQIRVEIDIKDWENRPGRVNLDADARYEINGQPVTFRLEVEMRMHNGHFVSVDVQFDEEKWEKLHK	0.037
DESAKRKFEEFLEQIRHNNPDELKKMMDKDVRVNIGDKEINGRDQVKNELERFAKEQRFRIQVKHMSVSNGHLHAKVTVESTHNGSPDSDKFQVQANFQGDKFKEMQWDKDS	-0.189
DESAQRLFEELLKAEHDGDRDRYQQLIDPNARIQVGDKSVKGRENIKHDVYRKHKEIRFSIQSMNNKVDGDKVKVDAKVVKEHDGRPDHAQITATVRARGDKVDEIRKEERK	-0.245
DESARDIASTIVSALHNNNPSQFSENLDKDATLNIGDKRIHGKERAEEHLSNQIKSLRIQFDDYQVRVHNGDVIINLDYKRDHNGEPRRVKQRVTIQIHNGRAQSVVVKETS	0.365
DESAVNNLVRLAKAWLRGDPKKIEHLVDKDAKAQIGDKTLHGREDLKDHADELRKDMTVDVKSVTNNNQNGQAVVDVKFEADRNGRPETHTLDAKATAHNGDIVDVKIHQDG	-0.304
DESDLSRQAKELIDNWETGNPDKMRKLMDENVTADVGDKRWHGRDEVVKWFKTLVDSIDHIEVREFKVSGNSVTFTAEANVNGKKATFQVVIEVHNGKIKDVKVNPDDLKQLEK	1.58
DESDMKRQAELFIRAVNTGDSDKVRKMADKDAHYDVGDKEIHGRENAARWVQRLREQADEVTVRDVRVQGEKVVIDVQADVNGRDVRMDLVIEFHNGKAQEVKMKHS	0.025
DESDQDRFRKYLHQLQNGDEKKLRKNMDPNVKFEVGEKRYEGREEYAKKVRQEVEEMRFSFKIHDIEVHNGRVTVEFEVTYEHNGRPDHEHVRIEMEVHNGKIRSVRQESDK	0.043
DESDVEDLAKDAINAYQTGDPDQVARMADKDVKFTVGDHEVKGRNQLREHLQTIFHNVDHFDVTDMRINGNKARIHFTANVNGQTERNVMIIVAHNGKVRKMAIHSQ	-0.566
DESDVERLTEIMEQNDFDQWVDQADKDAELVVGDKTLKGRETIQRWLKILSERVDHVSIKHIRNNGEEVDVKMTMIINGHRFEFVVNLTVHNGKITRFNFNFRDPDQLRRLHDQMS	1.25
DESDVKRAQDMVQNEQDGNEEEFDKLLDENVHFNVGDKRVNGRQQYLREVKKKRDQIRFSIKIDSVRARNGEATIDASARMVVNGQPKTYKFVIHVVQHNGDVRHVRISVPEEDVKRLKS	0.212
DESEEKELEDILRRNDWERMSELAPPDVHATVGDTRLHGMEQVLSLFQTLNKRADQIHVKTLSVHNGQLHAVIVMQFNGRRVELHFDFEVKNGEFTSARVQARTEEEEKVMKEVLR	1.05
DESEHAKRVADKFRTAAKNGDPDQFTQLADPNAKIDIGDKDVSGRERLSEVVNELNKRIDHLEVKVRSVTQRGNHLVVKADVDAEHNGQEIRRKVDIVLRNNNGRVNLEMIRYR	1.03
DESELEQLKRDWEHNDFDQLVRNMDKDVRLRIGNKQWHGHEQVQNFNRKMQEQIDHQHIRHIETRGNKIRVTYEIDINGQTMVVNAEAYIDNGRLKSMHVKFTSEEHRKVFEKAVD	0.746
DESELERAIEMLEQNDPEEARRQVDKNAHMQVGEKSWTGREDVQTALVKHNEHVDHVEVKSVTKRGDKAEVKARVEFNGHNLKANFIVEVHNGKIKHVRVEVTDEEQKKLMRELLQ	-0.363
DESEMDTAVKIVEKGDPHQYKKLIDPNAKIIVGDKELHGREDVERLLHKLYEQADHVQINSITVQGDELRVDAQFKFNGRDIRMVVEFRVHNGRVKSAHIQATSEEQERELSKMIS	1.35
DESEMQKAVEDIVKMLETGNETKFQENAPPDVRVDVGDKRFTGREDLRKWVHDVKERVDRIRVTHYSAHGEDVVIDVVYRHNGTNERANIVVHIHNGRMVQMKVQQS	0.944
DESEQASEVAHEMRHLYRKNDEDRFRELMDENVRARVGDKEYHGREDVLRMFQHEMRTADHMDVQVNDFRKEGDSIIIHADLKYVSNGNDRTRRLVFVLEVNGDTITLLQQQDQ	0.096
DESHARHLQRVFEKNDWQRLVELADEDVRIQIGNYDYHGRTAAQQMFEKLSKQIDHMEVKSMRVQGNKLQFDFEVNFNGKRNQAHFEMHFSNGRIKKIRFQFRDEEHEKDFDRHFS	1.46
DESIMNMMHQLIDAMETNDPEKMKRLADKDATFVYGDKTVHGRHQAEEWIHKVKKHQRFRIDLRDVKADNGRVTVNAQIDQNHNGQPSQRTVDAKAEVSNGRVKHASVRRTS	-0.117
DESITEFASHWKEVLEHGDFRRMADNVDEDVKVRIGDKEIHGRTRYRRRAKKQEDEISFRLQDLHVEVQGDHIVAKFQATVKINGQPNTFTVNVVMRVHNGRIKYMEQQFSEEDEDKLTQ	0.534
DESKEAHTLAKKYVELVKKGDQEKMKTMFDPNAKAHIGDKTYHGMTDFVETLVEQAKRVDHQSVDVKSVEVDGDHIDVEVTVKYTYNGQNRSNVERFIVRNHNGKWRVKEWHDK	-0.145
DESKKAKKFMEEYKRAIETGDEDTAKNLADKDARVKVGDTTYTGMDHIRERVVTEAKQVDHITFEVKEMQTRPGRLKVRMDVIFDHDGRKDRKEVVLVFKDNNGKVLLLSASYQ	-0.041
